According to patent US9393271B2, “GHRH agonists for islet cell transplantation and function and the treatment of diabetes” (UNIVERSITY OF MIAMI, priority 2012, dated 2016):
Where two headings read alike, the source gives them in different places. Non-standard residues stand in square brackets, D forms with d. Residues, ends and D or L forms follow the SMILES beside them. No end group written: not given here. *: point of attachment. Phe(F5) = N[C@@H](Cc1c(F)c(F)c(F)c(F)c1F)C(=O)O; Desaminotyrosyl = O=C(CCc1ccc(O)cc1)*; NMeY = CN[C@@H](Cc1ccc(O)cc1)C(=O)O; Agmatine = N=C(N)NCCCCN*; Nle = CCCC[C@H](N)C(=O)O; Orn = NCCC[C@H](N)C(=O)O; Abu = CC[C@H](N)C(=O)O; GABA = NCCCC(=O)O

What was measured:
[1] = target: T1, GHRH receptor (human pituitary membrane homogenates) (Homo sapiens, UniProt Q02643); experiment: GHRH receptor binding, ligand competition with 125I-labeled JV-1-42 (Table 7); parameters: Normal human pituitaries were purchased from the National Hormone and Peptide Program; tissue National Hormone and Peptide Program (A. F. Parlow, Harbor-UCLA Medical Center, Torrance, Calif.); host or cells: normal human pituitary, membrane fraction / homogenate; settings: JI-38 = 1
T1 sequence (Q02643 23-423): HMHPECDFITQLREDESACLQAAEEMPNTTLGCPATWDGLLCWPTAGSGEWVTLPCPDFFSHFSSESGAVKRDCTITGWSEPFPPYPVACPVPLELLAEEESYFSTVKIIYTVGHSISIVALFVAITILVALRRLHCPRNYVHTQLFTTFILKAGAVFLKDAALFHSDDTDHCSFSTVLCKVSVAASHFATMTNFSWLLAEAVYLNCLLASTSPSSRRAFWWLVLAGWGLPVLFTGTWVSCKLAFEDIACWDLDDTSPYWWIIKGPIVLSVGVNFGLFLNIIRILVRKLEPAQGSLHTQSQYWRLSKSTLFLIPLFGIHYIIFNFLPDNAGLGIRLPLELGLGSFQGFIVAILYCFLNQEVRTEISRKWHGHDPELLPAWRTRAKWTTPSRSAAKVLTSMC

[2] = test system: INS-1 cells; experiment: INS-1 proliferation (BrdU Cell Proliferation Assay); assay type: cell-based, rat; settings: different concentrations, 24 h, 48 h and 72 h
Experimental: For determination of proliferation activity, BrdU incorporation was performed in INS-1 cells following exposure to P-27403. Proliferation was measured using BrdU Cell Proliferation Assay (Millipore) following the manufacturer's description. The maximal enhancement in proliferation rate of 16% compared to control was found at 10^−8 M concentration of P-27403 (FIG. 1C).
INS-1 cells were grown for 72 h before experimentation. Cells were treated with GHRH agonists MR356, MR367, and MR403 at different concentrations or with 0.1% (vol/vol) DMSO as control for 24 h, 48 h and 72 h. Proliferation was measured using BrdU Cell Proliferation Assay (Millipore) following the manufacturer's description.

[3] = target: T1, GHRH receptor (human pituitary membrane homogenates); experiment: GHRH receptor binding, ligand competition with 125I-labeled JV-1-42 (Table 5)
Text: Normal human pituitaries were purchased from the National Hormone and Peptide Program (A. F. Parlow, Los Angeles, County Harbor-UCLA Medical Center, Torrance, Calif.).

[4] = test system: GH level; experiment: In vivo endocrine activity (GH release), intravenous administration; settings: rat
Experimental: In vivo tests on endocrine activity of new GHRH agonists (Intravenous administration). For in vivo tests based on intravenous administration, adult male Sprague-Dawley rats were anesthetized with pentobarbital (6 mg/100/g, b.w.), and GHRH agonists were injected 20 minutes after the injection of pentobarbital. Blood samples were taken from the jugular vein (pretreated level), immediately after hGHRH(1-29)NH2 injection (as a control) or after hGHRH analogs injection. Blood samples were taken from the jugular vein 5, 15 and 30 minutes after the injection. The blood samples were centrifuged, plasma was removed and the GH level was measured by ELISA.

[5] = test system: GH level; experiment: In vivo endocrine activity (GH release), subcutaneous administration; settings: rat, s.c.
Experimental: Subcutaneous Administration. Adult male rats were used and anesthetized with pentobarbital (6 mg/100 g, b.w.), by i.p. injection. […] Blood samples were taken from the jugular vein 5, 15 and/or 30 minutes after the injection. The blood samples were centrifuged, plasma was removed and the GH level was measured by ELISA. The results are summarized in terms of potency in Table 9.

[6] = target: GHRH receptor in human pituitary membrane homogenates (human) (UniProt Q02643); experiment: ligand competition, 125I-JV-1-42 displaced, human pituitary membranes
[7] = target: T2, GHRH receptor (rat) (rat, UniProt Q02644)
T2 sequence: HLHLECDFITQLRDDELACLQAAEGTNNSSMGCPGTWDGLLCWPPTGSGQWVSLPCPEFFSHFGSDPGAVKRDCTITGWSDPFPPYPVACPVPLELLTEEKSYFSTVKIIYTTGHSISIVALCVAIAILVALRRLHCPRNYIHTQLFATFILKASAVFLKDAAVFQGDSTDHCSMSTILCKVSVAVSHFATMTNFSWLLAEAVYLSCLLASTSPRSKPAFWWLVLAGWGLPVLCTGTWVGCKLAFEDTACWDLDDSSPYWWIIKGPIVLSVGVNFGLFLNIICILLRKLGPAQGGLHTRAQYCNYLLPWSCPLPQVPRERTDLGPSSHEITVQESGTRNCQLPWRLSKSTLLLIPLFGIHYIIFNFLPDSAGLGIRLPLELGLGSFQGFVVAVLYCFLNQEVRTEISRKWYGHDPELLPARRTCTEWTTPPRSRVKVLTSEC

[8] = target: GHRH receptor in human pituitary membrane homogenates (human) (UniProt Q02643); experiment: ligand competition, [His1,125I-Tyr10,Nle27]hGHRH(1-32)NH2 displaced, human pituitary membranes
[9] = target: GHRH receptor in human pituitary membrane homogenates (human) (UniProt Q02643); experiment: ligand competition, 125I-JV-1-42 displaced, human pituitary membranes; remark: listed apart in the source
[10] = target: T3, GHRH receptor in human pituitary membrane homogenates (human, UniProt Q02643); experiment: as above
T3 sequence: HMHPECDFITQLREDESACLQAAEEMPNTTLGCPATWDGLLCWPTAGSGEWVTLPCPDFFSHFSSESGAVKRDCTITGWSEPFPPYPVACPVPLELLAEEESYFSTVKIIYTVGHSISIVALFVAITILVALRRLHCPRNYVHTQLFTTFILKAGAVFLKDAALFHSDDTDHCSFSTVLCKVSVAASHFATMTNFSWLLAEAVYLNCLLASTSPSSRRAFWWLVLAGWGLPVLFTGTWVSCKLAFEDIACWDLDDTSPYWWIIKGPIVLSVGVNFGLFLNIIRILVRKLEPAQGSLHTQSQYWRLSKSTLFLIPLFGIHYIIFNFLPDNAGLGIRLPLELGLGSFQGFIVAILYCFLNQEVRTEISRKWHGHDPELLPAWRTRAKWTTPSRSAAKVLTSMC

[11] = target: T3, GHRH receptor in human pituitary …; experiment: as above; remark: listed apart in the source
[12] = target: T2, GHRH receptor (rat); experiment: cell-based or functional assay

Molecule: CCCC[C@H](NC(=O)[C@@H](NC(=O)[C@H](CC(=O)O)NC(=O)[C@H](CCC(N)=O)NC(=O)[C@H](CC(C)C)NC(=O)[C@H](CC(C)C)NC(=O)[C@H](CCCN)NC(=O)[C@H](CCCNC(=N)N)NC(=O)[C@H](C)NC(=O)[C@H](CO)NC(=O)[C@H](CC(C)C)NC(=O)[C@H](CCC(N)=O)NC(=O)[C@H](CC)NC(=O)[C@H](CC(C)C)NC(=O)[C@@H](NC(=O)[C@H](CCCN)NC(=O)[C@H](CCCNC(=N)N)NC(=O)[C@H](Cc1ccc(O)cc1)NC(=O)[C@H](CO)NC(=O)[C@H](CC(N)=O)NC(=O)[C@@H](NC(=O)[C@H](Cc1ccccc1)NC(=O)[C@@H](NC(=O)[C@H](C)NC(=O)[C@H](CC(=O)O)NC(=O)[C@@H](C)NC(=O)[C@H](Cc1ccc(O)cc1)NC)[C@@H](C)CC)[C@@H](C)O)C(C)C)[C@@H](C)CC)C(=O)N[C@@H](CC(=O)O)C(=O)NCCCCNC(=N)N [Peptide P-20367, [N—Me-Tyr^1, D-Ala^2, Orn^12, Abu^15, Orn^21, Nle^27, Asp^28, Agm^29]hGHRH(1-29)] (H-[NMeY][dA]DAIFTNSYR[Orn]VL[Abu]QLSAR[Orn]LLQDI[Nle]D-Agmatine)
- Relative affinitiy (Binding potency) vs JI-38 [1]: 2.56
- Cell proliferation compared to control [2]: significantly induced cell proliferation

Molecule: CCCC[C@H](NC(=O)[C@@H](NC(=O)[C@H](CC(=O)O)NC(=O)[C@H](CCC(N)=O)NC(=O)[C@H](CC(C)C)NC(=O)[C@H](CC(C)C)NC(=O)[C@H](CCCN)NC(=O)[C@H](CCCNC(=N)N)NC(=O)[C@H](C)NC(=O)[C@H](CO)NC(=O)[C@H](CC(C)C)NC(=O)[C@H](CCC(N)=O)NC(=O)[C@H](CC)NC(=O)[C@H](CC(C)C)NC(=O)[C@@H](NC(=O)[C@H](CCCN)NC(=O)[C@H](CCCNC(=N)N)NC(=O)[C@H](Cc1ccc(O)cc1)NC(=O)[C@H](CO)NC(=O)[C@H](CC(N)=O)NC(=O)[C@@H](NC(=O)[C@H](Cc1c(F)c(F)c(F)c(F)c1F)NC(=O)[C@@H](NC(=O)[C@H](C)NC(=O)[C@H](CC(=O)O)NC(=O)[C@@H](C)NC(=O)CCc1ccc(O)cc1)[C@@H](C)CC)[C@@H](C)O)C(C)C)[C@@H](C)CC)C(=O)N[C@@H](CO)C(=O)N[C@@H](CCCNC(=N)N)C(=O)NCCCC(N)=O [Peptide P-25502, [Dat^1, D-Ala^2, Fpa5^6, Orn^12, Abu^15, Orn^21, Nle^27, Gab^30]hGHRH(1-30)NH2] (Desaminotyrosyl-[dA]DAI[Phe(F5)]TNSYR[Orn]VL[Abu]QLSAR[Orn]LLQDI[Nle]SR[GABA]-NH2)
- Relative affinitiy (Binding potency) vs GHRH ([3]; GHRH(1-29) = 1): 58.0
- Relative affinitiy (Binding potency) vs JI-38 ([3]; JI-38 = 1): 24.4
- Stimulation of growth hormone levels after i.v. administration (comparison in words) [4]: most potent
- Relative affinitiy (Binding potency) vs JI-38 [1]: 13.18
- Stimulation of growth hormone levels after s.c. administration (comparison in words) [5]: stimulated greater growth hormone levels than hGHRH or JI-38

Molecule: JI-38 (peptide)
- IC50 [6]: 1.71 nM
- relative affinity (binding potency) vs GHRH (GHRH(1-29) = 1) [6]: 2.4
- GH release from superfused rat pituitary cells, 1 nM for 3 min, GH by ELISA (peak fraction, average) [7]: 195 ng/mL
- IC50 [8]: 1.95 nM
- relative affinity (binding potency) vs GHRH (GHRH(1-29) = 1) [8]: 3.03
- relative affinity (binding potency) vs JI-38 [8]: 1 JI-38 = 1
- IC50 [9]: 4.35 nM
- relative affinity (binding potency) vs JI-38 [9]: 1 JI-38 = 1

Molecule: [NMeY]ADAIFTQSYR[Orn]VL[Abu]QLSAR[Orn]LLQDI[Nle]D[Agmatine] [[N-Me-Tyr1, Gln8, Orn12, Abu15, Orn21, Nle27, Asp28, Agm29]hGHRH(1-29)]
- IC50 [10]: 0.01 nM
- relative affinity (binding potency) vs GHRH [10]: 406 GHRH(1-29) = 1
- relative affinity (binding potency) vs JI-38 [10]: 171 JI-38 = 1
- IC50 [11]: 0.27 nM
- relative affinity (binding potency) vs JI-38 [11]: 16.1 JI-38 = 1
- GH-releasing potency in superfused rat pituitary cells relative to JI-38 [12]: ~3 times (vs JI-38)

B1: [Dat1, D-Ala2, Gln8, Orn12, Abu15, Orn21, Nle27, Asp28, Agm29]hGHRH(1-29) (peptide)
peptide: [Desaminotyrosyl][dA]DAIFTQSYR[Orn]VL[Abu]QLSAR[Orn]LLQDI[Nle]D[Agmatine]
SMILES: CCCC[C@H](NC(=O)[C@@H](NC(=O)[C@H](CC(=O)O)NC(=O)[C@H](CCC(N)=O)NC(=O)[C@H](CC(C)C)NC(=O)[C@H](CC(C)C)NC(=O)[C@H](CCCN)NC(=O)[C@H](CCCNC(=N)N)NC(=O)[C@H](C)NC(=O)[C@H](CO)NC(=O)[C@H](CC(C)C)NC(=O)[C@H](CCC(N)=O)NC(=O)[C@H](CC)NC(=O)[C@H](CC(C)C)NC(=O)[C@@H](NC(=O)[C@H](CCCN)NC(=O)[C@H](CCCNC(=N)N)NC(=O)[C@H](Cc1ccc(O)cc1)NC(=O)[C@H](CO)NC(=O)[C@H](CCC(N)=O)NC(=O)[C@@H](NC(=O)[C@H](Cc1ccccc1)NC(=O)[C@@H](NC(=O)[C@H](C)NC(=O)[C@H](CC(=O)O)NC(=O)[C@@H](C)NC(=O)CCc1ccc(O)cc1)[C@@H](C)CC)[C@@H](C)O)C(C)C)[C@@H](C)CC)C(=O)N[C@@H](CC(=O)O)C(=O)NCCCCNC(=N)N
- IC50 [10]: 0.04 nM
- relative affinity (binding potency) vs GHRH [10]: 102 GHRH(1-29) = 1
- relative affinity (binding potency) vs JI-38 [10]: 42.7 JI-38 = 1
- IC50 [11]: 0.52 nM
- relative affinity (binding potency) vs JI-38 [11]: 8.37 JI-38 = 1
